Key:
Experiment in all cases: cell_activity
[1] = tested on: ZFN 12029 (synthetic construct); conditions: pair 12029/12030, CHO K-1, Cel-1 assay 2 days post-transfection
[2] = tested on: ZFN 12030 (synthetic construct); conditions: pair 12029/12030, CHO K-1, Cel-1 assay 2 days post-transfection
[3] = tested on: ZFN 12176 (synthetic construct); conditions: pair 12172/12176 (3.0 with 12170), CHO K-1, Cel-1 assay 2 days post-transfection
[4] = tested on: ZFN 12170 (synthetic construct); conditions: pair 12170/12176, CHO K-1, Cel-1 assay 2 days post-transfection
[5] = tested on: ZFN 12172 (synthetic construct); conditions: pair 12172/12176, CHO K-1, Cel-1 assay 2 days post-transfection

GTCTCGGATGCT (double strand) [FUT8 12029 half-site]
activity (% chromosomes modified) [1]: 3.3

AAGGACACACTG (double strand) [FUT8 12030 half-site]
activity (% chromosomes modified) [2]: 3.3

AAGAAGGGTCATCAG (double strand) [FUT8 exon 10 12176 half-site]
activity (% chromosomes modified) [3]: 4.4

AAGGAGGCAAAGACAAAG (double strand) [FUT8 exon 10 12170/12172 half-site]
activity (% chromosomes modified) [4]: 3 | activity (% chromosomes modified) [5]: 4.4
